23 sequences from the DeepSol protein solubility set can be followed below.

The nature of this data set: soluble on expression in E. coli; label from the status in PepcDB or PDB records.
Take “MNNDNKRSAGGLGLVGDIGGTNARFALWRGQRLESIEVLACADYPRPELAVRDYLARIGESVANIDSVCLACAGPVGAADFRFTNNHWVINRAAFREELGLDHLLLVNDFSTMAWAASRLGADELVQVRAGSAQADRARLIIGPGTGLGVGSLLPLGGGRWEVLPCEGGHVDLPVTSPRDFALWQGLQARYGHVSAERALSGNGLLALYEISCALDGVAVRASSAAEVGALAMAGDAQADAVLEHFFLWLARVAGNAVLTVGALGGVYITGGIVPRFLERFIASGFAEAFASRGKTSGAYLQDVPVWVMTAEHPGLLGAGVALQQALDAEG”: the “soluble on expression in E. coli” value is listed as “not soluble”.

Regarding “MGSDKIHHHHHHTYDYFEDETNYQVFVPEVLNKTVSDCRVLVYNDAGTLVGARYATSPWDKDPRMEAGLFSFRLTPGEYKVYCYTNTDSLTFVDGQHLDASAFILKSSSTGPNRYVQPSDILFQKFVPAIVHPGILQTDTAALERYTGRITVRFKKFPGDVSHIKKVQLLAEGAPVMQYLKNDTLTGRLTPEDKMFHFGTLPVQEKADVLEVDHRFIPSVENEPMRLNYTFLDENGAVVNHLPVEVTERETGLPLRLLHGKRIIIEIESYTVIKISVVGWNEDIESGDTDME”, the “soluble on expression in E. coli” value is listed as “not soluble”. As to “MLKILKRIVQDVTAASDLKEALGILVQRINTAINAEAVSVYLIDNKNAEYVLIATEGLNKQAEFRVRIALDCGLIGLIGRREEPINIENAPSHPDFYHNPLIGEDHLNAFLGVPIIQHRKLYGVLVVQQLEQRYFDDAEESFLITLAAQLGGIIAHAEATGELAELTQ”, the “soluble on expression in E. coli” value is “not soluble”. The value for “PFSFFHWIFIHPESHTESEISEIITHEETHARQYHSADVLVSEIMCTFCWFNPFVWLMKREVRGNLEYMADHRVLETGHDSKSYQYHLL” was “not soluble”; that for “MKAYWIAHVDVTDPQQYSEYTQRAPAAFQLFGGKFLARGGRSEAIEGRATPQRTVIIEFESYEQAVACYHSPQYQNAMSHRQGAAKAEIVIVEGQP” was “not soluble”; that for “MNRFILSAFLLVAIFAISDAAVAQQQVKDGEKVEIDAFKGAKAIKRTVAGGDQIFHLDGDNKGSFVDAKGKKIESTNYEANNGILIIKKFTKADVGTYSEHPAKNTETKHADGSISAVPGLTLDISLQ” was “soluble”. The value for “MAHHHHHHMPLYRLSVSAETEGVVCIRPMRPRNWGLKVTCDACREFSPNFVYVDESEECDSGGGGTRNAAFKCASCKTLITAHIDPESYGTYRPEEDNGKGDGNSILIIEVRGATPTELEIDDKWVVEAEGATFEAADLSTDWMEYDEKSGNAVSVSQFTVEFSRLKK” was “soluble”.

As for “MSLNSNEKMGIFQGKKMKTKIIVIVGPTAVGKTALAIEVAKRFNGEVVSGDSQQVYRGLDIGTAKASPEEQAAVPHHLIDVREITESYSAFDFVSEAKMTIEDIHSRGKLAIIAGGTGLYIQSLLEGYHLGGETPHEEILAYRASLEPYSDEELAHLVEQAGLEIPQFNRRRAMRALEIAHFGQDLENQEILYEPLIICLDDERSQLYERINHRVDLMFEAGLLDEAKWLFDHSPNVQAAKGIGYKELFPYFRGEQTFEEARESLKQATRRFAKRQLTWFRNRMQVTFYQIGESGVQDRILSQIEEFLDDEGHHHHHH”, the “soluble on expression in E. coli” value was “soluble”. In the case of “MGSDKIHHHHHHMTLHKICILGGTGFVGRHLAERLSQKGHAVRILTRNRERHRENLLVLPGVELIEANVHDPVALKKQLAGRDVVINLVGILNERHQGDFDRNHVELPRLVVGACNDLGIPRLLHMSALGASPTGPSAYLRSKGTGEEIVRQSNGNRAEMGRFDDLEEPMPLWSHGLKTTSFRPAVIFGEGDSFFNRFAGLLRRIPFFIPLARSKARMQPVWIEDVVSAYVQSMDDEKTYGQAYDLCGPKVYTLGELVAYTQSLIGTRRVIVPLGDFAGNLQASIMERLPGKVLTRDNLLSLSIDSVCTRNDLAESFQIEATSVESIVPGYLGGKGARAERLAEIRNRRS”, the “soluble on expression in E. coli” value was “not soluble”. The entry for “MSLEQLLTNYSIETQTKSCEDFAFRIGFNDIKYMGGVSESAKDGNRKIYNEMLRYAMDKRNNIQAIIVYSMDRFSRHLASAAPDIEKLNKKNIILYSVQEQISSNDDMGIHFMNFKLSSSQFENRLRSSRARDGVRNRILMGKYPFATPPIGYNKDSDKNLVINEDGELLRKAFKMLLDGYSMMHIMKVMSRYGIIKPVNRWGEIFRNPIYAGLIVSKTNDNKPIKGIHQPIVSEKDFYKLQGIFEFKSKPRLKETDTIDIFPLKTLLQCPNGHGRLTGDIKKTKKNQPAYYKCNKCSFTASAQKANNAFLNLLSVVEFNQVFKDEFKEILDAVFENTFQEMTVKKNKLAREISIKETQLTNLFDAKFAEKINENKFEILSAKYTQSLEDMQKQLVFVTAELPEKKTFIEDCLIDLNNFEKLWDVAEYMDKQQIFNTIFKEKPSIVNNNHKIGLSNISLNPAFRSNLVELVHRKAIITGNYEGHHHHHH” is “not soluble”. In the case of “MVARIYRPAKTAMQSGKAKTDQWLLEYEPEKPRVVEPLMGYTSSGDMKSQIRLFFASQEEAVAYATRNDIPYRLMEPHEPKRRKVSYSDNFRFDRPQPWTHLEHHHHHH”, the “soluble on expression in E. coli” value is listed as “not soluble”.

As for “MKEILDHYGSLLSRIDDWFRACLDSSGDRIRCADGCSDCCRGLFDITLLDAAFLRRGFDRLDPEVREQVLVRCRERIAILRLVWPEFDQPFILNMRPDDEWEALMPDDDETPCPLLDRHGRCLVYEHRPMTCRLHGLPLVDVSGEIMHDEWCTLNCIDADPLADPALRGDFDRIFTEEVRLIRTFAGRLLGHPLSEVDTFIPTALVIAFDSINWLSWGNRLAALSLSDPRSKLEHHHHHH”, the “soluble on expression in E. coli” value is given as “not soluble”.

With “MGSDKIHHHHHHMNKELASKFLSSIKHEREQDIQTTSRLLTTLSIQQLVQNGLAINNIHLENIRSGLIGKLYMELGPNLAVNDKIQRGDIKVGDIVLVRPAKTKVNTKTKPKVKKVSEDSNGEQAECSGVVYKMSDTQITIALEESQDVIATTFYSYSKLYILKTTNVVTYNRMESTMRKLSEISSPIQDKIIQYLVNERPFIPNTNSFQNIKSFLNPNLNDSQKTAINFAINNDLTIIHGPPGTGKTFTLIELIQQLLIKNPEERILICGPSNISVDTILERLTPLVPNNLLLRIGHPARLLDSNKRHSLDILSKKNTIVKDISQEIDKLIQENKKLKNYKQRKENWNEIKLLRKDLKKREFKTIKDLIIQSRIVVTTLHGSSSRELCSLYRDDPNFQLFDTLIIDEVSQAMEPQCWIPLIAHQNQFHKLVLAGDNKQLPPTIKTEDDKNVIHNLETTLFDRIIKIFPKRDMVKFLNVQYRMNQKIMEFPSHSMYNGKLLADATVANRLLIDLPTVDATPSEDDDDTKIPLIWYDTQGDEFQETADEATILGSKYNEGEIAIVKEHIENLRSFNVPENSIGVISPYNAQVSHLKKLIHDELKLTDIEISTVDGFQGREKDVIILSLVRSNEKFEVGFLKEERRLNVAMTRPRRQLVVVGNIEVLQRCGNKYLKSWSEWCEENADVRYPNIDDYL”, the “soluble on expression in E. coli” value is reported as “not soluble”. The entry for “FHLGKCPNPPVQENFDVNKYPGRWYEIEKIPTTFENGRCIQANYSLMENGKIKVLNQELRADGTVNQIEGEATPVNLTEPAKLEVKFSWFMPSAPYHILATDYENYALVYSCTSISQSFHVDFAWILARNVALPPETVDSLKNILTSNNIDVKKMTVTDQVNCPKLSAHHHHHH” is “soluble”; for “MGSDKIHHHHHHMLFFSFILLPELDVTMEDSGRRIKNEYRAWKERKMTKLTVGLALGSGAAKGWAHIGVLNGLAKLDIYPDKVAGCSVGALVGAAYANNHLGELETWVSGFSSWDVLGLMDLGWRKGGLISGEKVFDVLANRIGDIDIEQLNRPFAAVATDLYSGQEIWFKEGDLRHAVRASCSMPGFLPPVQQGHRWVVDGAVVNPVPVSLARSMGVDVVIAVDLNGHRRGQMHLIPEQVKSRKASKSEPIDEKRELESGFMDLWGKGKDYMNGLTDKFSLGSSKSHPGMLAVMSQSMDILEQRHKRSRLMGEPPDICIVPDVGDIGTMEFHRAKEAIKAGEQAVNDIKHLIEATLK” it is “not soluble”. The value for “AHHHHHHGSIIIYTTFPTWESAEKVTKALLEERLVACANLREHKAFYWWQGKIEEDNEIGVILKTREDLWEEVKKRIKELHPYTVPAIIKINVEDVNEEYLKWLLEETKST” was “not soluble”; that for “MSLRLLRVVGCPEWVIDHSLAVRKKALELSRELPVDMKLVEEGAILHDIGRCRTSGVEHAVEGARILEGFGYPPEVVRIVERHVGAGIPPEEAKALGLPPGDYMPRTLEEKIVAHADNLINGSDEVDIDFVIKKWSDRLGADHPSIESLKRLHEELLGHL” was “not soluble”; that for “MATTSAQTSPTEFGAGLPEAEDHSESAEPQSVEAEVIDERYADVWEKIQHARTIDVHDDAEVRKQRNFFDDKQKFMTQVTQRAEPFLYYIVSQLEARNMPLELALLPIVESGYNPLAQANGPAGLWQMIPATGRNFGLTINSAYDGRKDALASTDAVLDYLQHLYNTLGNDWINAVAGYNSGELVIKAAIDRNKAKGKPTDFWSLNIPARQVQTVPKWLAFIQIIREPSHYNLKVMPIANRPFLERLPAPNGVEISQIANAAGLTKAEFKTYNPGYRQSVIPSKGKYQIALPIENIGHYQENQHKLYAQKRYDSQTYIVKSGDSLGTIAAKFDLSVKELKQANNLTSDRLKIGQELTLLTPMAANDNEPEPVKTKANTDKSSTKANASSTKATSSKSTDKPVAKAKTYKVKSGDSLDKIARKSKVKLADLMKWNQLNAKSIIKPGQELKISELEHHHHHH” was “not soluble”.

In the case of “MSNIIKQLEQEQLKQNVPSFRPGDTLEVKVWVVEGSKRRLQAFEGVVIAIRNRGLHSAFTLRKVSNGVGVERVFQTHSPAVDSIAVKRKGAVRKAKLYYLRERSGKSARIKERLGALEHHHHHH”, the “soluble on expression in E. coli” value is “not soluble”. As for “MSSKHEILNALKLSALTNHPMPSIDVAPRVEDLVGQFETNLKTVAGTLHREGGLAALQAKVDELIAQGLQVISLVEGVTANRDVPPTAHELRDIDYAVIPGDVGVAENGAIWVNNKNLGHRVTPFICENLILALPIHKIVPNMHQAAKEVTLDAGEFGVFIAGPSKTADIEQALVVGAHGACSLNVYLV”, the “soluble on expression in E. coli” value is on record as “soluble”.

As to “MESVAAESAPAPENEHSQETPESNSSVYTTFMKSHRCYDLIPTSSKLVVFDTSLQVKKAFFALVTNGVRAAPLWDSKKQSFVGMLTITDFINILHRYYKSALVQIYELEEHKIETWREVYLQDSFKPLVCISPNASLFDAVSSLIRNKIHRLPVIDPESGNTLYILTHKRILKFLKLFITEFPKPEFMSKSLEELQIGTYANIAMVRTTTPVYVALGIFVQHRVSALPVVDEKGRVVDIYSKFDVINLAAEKTYNNLDVSVTKALQHRSHYFEGVLKCYLHETLEAIINRLVEAEVHRLVVVDEHDVVKGIVSLSDILQALVLTGGEKKP”, the “soluble on expression in E. coli” value was “soluble”.

On to “MKNNRYSPDWPQLALQKKQSVNWVCERCGVQCLKPGEGKGLSTGDRYRLRMAVHHCDYDPSNNYPSNLMALCSPCHLYYHRRQRGNVTPGQLTLKFCLEHHHHHH”, for which the “soluble on expression in E. coli” value is “not soluble”. The entry for “MDVKMKGIVRVVPYDPEWKTEFLKIKAMIVDCAGDLIIDVVHVGSTAIEGLASKPIIDIDVVIDSYYVFPAVKDRLAKIGFEHEGNLGVEGREAFKRTFVDDFMPYHLYICPKDGKGYLEHIAFRNYLRDHPEAVKAYGELKMRLAEQFRTDITSYVNAKREFVQNVLKKINS” is “soluble”.
